The values below come from patent publication US20220267396A1.

“And” between values parts separate entries of the source, which are not always exact repeats. Equal values may be shown once.

Assay [1] deals with anti-DNP mouse IgE antibody (Sigma, USA). Nature of the assay: BLI (Octet K2), average of three runs, fusion protein on sensor, anti-DNP mouse IgE in solution.
The target is the same in assay [2]. The experiment in a line: BLI (Octet K2), fusion protein on sensor, anti-DNP mouse IgE in solution.
Assay [3] shares this target. The experiment in a line: BLI (Octet K2), fusion protein amine-coupled to AR2G sensor, anti-DNP mouse IgE in solution 50 pM-3.125 nM.
The target of assay [4] is T1, IL-10 receptor 1 (IL-10R1), IL-10R His-tag protein.
T1 sequence (Q13651 22-235, species assumed, looked up): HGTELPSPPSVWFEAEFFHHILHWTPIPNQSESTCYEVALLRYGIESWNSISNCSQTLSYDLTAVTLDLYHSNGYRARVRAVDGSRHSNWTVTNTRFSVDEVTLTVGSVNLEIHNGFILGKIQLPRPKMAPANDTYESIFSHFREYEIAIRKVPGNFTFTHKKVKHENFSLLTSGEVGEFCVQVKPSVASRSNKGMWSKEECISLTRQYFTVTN
The experiment in a line: BLI (Octet K2), IL-10R His-tag amine-coupled to AR2G sensor, fusion protein in solution 0-1,000 nM.

The target is the same in assay [5]. Nature of the assay: BLI (Octet K2), IL-10R His-tag on sensor.

For the molecule “FcεRIα-Fc fusion protein not containing IL-10Vm (control) (from UniProt P12319 26-205)”, the Kd in assay [1] was 0.594 nM; in assay [3] it was 0.364 nM and 0.478 nM and 0.94 nM. In addition, the on-rate constant (kon) in assay [2] was 123000 M⁻¹ s⁻¹ and 149000 M⁻¹ s⁻¹ and 166000 M⁻¹ s⁻¹.

B1: IL-10M (NTIG-linker 1-IL-10V), dimeric IL-10 variant fusion protein of Comparative Example 1 (Fc fusion, not shown: a dimerising Fc or GST)
chain: AAGSGGGGGSGGGGSGGGGSSPGQGTQSENSCTHFPGNLPNMLRDLRDAFSRVKTFFQMKDQLDNLLLKESLLEDFKGYLGCQALSEMIQFYLEEVMPQAENQDPDAKAHVNSLGENLKTLRLRLRRCHRFLPCENKSKAVEQVKNAFNKLQEKGIYKAMSEFDIFINYIEAYMTMKIRN
B1: in assay [4], the Kd worked out at 11.1 nM, the koff was determined as 0.0008 s⁻¹ and the kon amounted to 71100 M⁻¹ s⁻¹.

B2: IL-10M-1 (NTIG-linker 1-IL-10Vm), monomeric IL-10 variant fusion protein of Example 1 (Fc fusion)
chain: SHTQPLGVFLFPPKPKDQLMISRTPEVTCVVVDVSQEDPEVQFNWYVDGVEVHNAKTKPREEQFNSTYRVVSVLTVLHQDWLNGKEYKCKVSNKGLPSSIEKTISKAKGQPREPQVYTLPPSQEEMTKNQVSLTCLVKGFYPSDIAVEWESNGQPENNYKTTPPVLDSDGSFFLYSRLTVDKSRWQEGNVFSCSVLHEALHNHYTQKSLSLSLGAAGSGGGGGSGGGGSGGGGSSPGQGTQSENSCTHFPGNLPNMLRDLRDAFSRVKTFFQMKDQLDNLLLKESLLEDFKGYLGCQALSEMIQFYLEEVMPQAENQDPDIKAHVNSLGENLKTLRLRLRRCHRFLPCENGGSGGSGGSKSKAVEQVKNAFNKLQEKGIYKAMSEFDIFINYIEAYMTMKIRN
Turning to B2, the fold of KD against Comparative Example 1 (NTIG-IL-10V) in assay [5] was found to be 3 fold. In assay [4], this molecule gave a Kd of 29.2 nM, an off-rate (koff) of 0.0006 s⁻¹ and a kon of 20600 M⁻¹ s⁻¹.
